Consider 17 sequences from the DeepSol protein solubility set.

The nature of the data set: soluble on expression in E. coli; label from the status in PepcDB or PDB records.
In the case of “GFILKRGWTVLESKYLDLLAQKYDCEEKVVTEIINLKAILNLPKGTEHFVSDLHGEYQAFQHVLRNGSGRVKEKIRDIFSGVIYDREIDELAALVYYPEDKLKLIKHDFDAKEALNEWYKETIHRMIKLVSYCSSKYTRSKLRKALPAQFAYITEELLYKTEQAGNKEQYYSEIIDQIIELGQADKLITGLAYSVQRLVVDHLHVVGDIYDRGPQPDRIMEELINYHSVDIQWGNHDVLWIGAYSGSKVCLANIIRICARYDNLDIIEDVYGINLRPLLNLAEKYYDDNPAFRPKADENRPEDEIKQITKIHQAIAMIQFKLESPIIKRRPNFNMEERLLLEKIDYDKNEITLNGKTYQLENTCFATINPEQPDQLLEEEAEVIDKLLFSVQHSEKLGRHMNFMMKKGSLYLKYNGNLLIHGCIPVDENGNMETMMIEDKPYAGRELLDVFERFLREAFAHPEETDDLATDMAWYLWTGEYSSLFGKRAMTTFERYFIKEKETHKEKKNPYYYLREDEATCRNILAEFGLNPDHGHIINGHTPVKEIEGEDPIKANGKMIVIDGGFSKAYQSTTGIAGYTLLYNSYGMQLVAHKHFNSKAEVLSTGTDVLTVKRLVDKELERKKVKETNVGEELLQEVAILESLREYRY”, the “soluble on expression in E. coli” value is reported as “not soluble”. In the case of “GGGGGGMKRFYIANEDEIKAGKTTDVYFLRTKKILEVKNIRKKVLADVTTTSLPNNWRWGVLVGVEEVAKLLEGIPVNVYAMPEGTIFHPYEPVLQIEGDYADFGIYETALLGMLSQASGIATAALRIKIAAKFKPVYSFGIRHMHPAIAPMIDRAAFIGGCDGVSGVLGAEMMGEKAVGTMPHALIITVGDQVKAWKYFDEVIEEEVPRIALVDTFYDEKVEAVMAAEALGKKLFAVRLDTPSSRRGNFRKIIEEVRWELKVRGYDWVKIFVSGGLDEEKIKEIVDVVDAFGVGGAIASAKPVDFALDIVEVEGKPIAKRGKLSGRKQVYRCENGHYHVVPANKKLERCPVCNAKVEPLLKPIIENGEIVVEFPKAREIREYVLEQAKKFNLEI”, the “soluble on expression in E. coli” value was “soluble”. Turning to “GGRLLGALCVFKDITDAVELAEEVTNLKQVRTMLEAIIQSSDEAISVVDENGIGLLINKAYTKMTGLSEKEVIGKPANTDISEGESMHLKVLETRRPVRGVRMKVGPNEKEVIVNVAPVIVDG”, the “soluble on expression in E. coli” value is “not soluble”. The same measure for “GGSGPLKPEEHEDILNKLLDPELAQSERTEALQQLRVNYGSFVSEYNDLEEKVAHAKEENLNMHQMLDQTLLELNNM”: “soluble”; for “GHHHHHHHHHHSSGHIEGRHMRVLFVSSPGIGHLFPLIQLAWGFRTAGHDVLIAVAEHADRAAAAGLEVVDVAPDYSAVKVFEQVAKDNPRFAETVATRPAIDLEEWGVQIAAVNRPLVDGTMALVDDYRPDLVVYEQGATVGLLAADRAGVPAVQRNQSAWRTRGMHRSIASFLTDLMDKHQVSLPEPVATIESFPPSLLLEAEPEGWFMRWVPYGGGAVLGDRLPPVPARPEVAITMGTIELQAFGIGAVEPIIAAAGEVDADFVLALGDLDISPLGTLPRNVRAVGWTPLHTLLRTCTAVVHHGGGGTVMTAIDAGIPQLLAPDPRDQFQHTAREAVSRRGIGLVSTSDKVDADLLRRLIGDESLRTAAREVREEMVALPTPAETVRRIVERISG”: “soluble”. For “GHHHHHHHHHHSSGHISGDAMEDKQERANYEKLQQKFQMLMSKHQAHVRPQFESLEKINKDIVGWIKLSGTSLNYPVLQGKTNHDYLNLDFEREHRRKGSIFMDFRNELKNLNHNTILYGHHVGDNTMFDVLEDYLKQSFYEKHKIIEFDNKYGKYQLQVFSAYKTTTKDNYIRTDFENDQDYQQFLDETKRKSVINSDVNVTVKDRIMTLSTCEDAYSETTKRIVVVAKIIKVS”, the “soluble on expression in E. coli” value is on record as “soluble”. In the case of “GIDPFTMAAYTIVKEEESPIAPHRLFKALVLERHQVLVKAQPHVFKSGEIIEGDGGVGTVTKITFVDGHPLTYMLHKFDEIDAANFYCKYTLFEGDVLRDNIEKVVYEVKLEAVGGGSKGKITVTYHPKPGCTVNEEEVKIGEKKAYEFYKQVEEYLAANPEVFA”, the “soluble on expression in E. coli” value is on record as “soluble”. The same measure for “GIDPFTTARKSTGGKAPRKGGMVVKKRKLATEAGGSDERPKYLPGKHPKNQEKTPHVDYNAPLNPKSELFLDDWHIPKFNRFISFTLDVLIDKYKDIFKDFIKLPSRKFHPQYYYKIQQPMSINEIKSRDYEYEDGPSNFLLDVELLTKNCQAYNEYDSLIVKNSMQVVMLIEFEVLKAKNLKRNYLINSEVKAKLLHYLNKLVDATEKKINQALLGASSPKNLDDKVKLSEPFMELVDKDELPEYYEIVHSPMALSIVKQNLEIGQYSKIYDFIIDMLLVFQNAHIFNDPSALIYKDATTLTNYFNYLIQKEFFPELQDLNERGEINLEFDKFEFENYLAIGGGGPAAAGALAISALDND”: “soluble”; for “GIPMETKGGTVKAASGFNATEDAQVLRKAMKGLGTDEDAIIGVLACRNTAQRQEIRTAYKSTIGRDLLEDLKSELSSNFEQVILGMMTPTVLYDVQELRRAMKGAGTDEGCLIEILASRNPEEIRRINQTYQQQYGRSLEEDICSDTSFMFQRVLVSLTAGGRDEGNYLDDALVKQDAQDLYEAGEKRWGTDEVKFLSILCSRNRNHLLHVFDEYKRISQKDIEQSIKSETSGSFEDALLAIVKCMRNKPAYFAERLYKSMKGLGTDDSTLIRVMVSRAEIDMLDIRANFKRLYGKSLYSFIKGDTSGDYRKVLLILCGGDD”: “soluble”. The same measure for “GKDFTYNVDANVSFARNKILYMDEVPKQFSYMNQTGGSTGRQTGVYNYIRLYQYSDFITGADGELTLKPELPQPYQKVYPGDAMYADLNGDHIVDGNDKSVAGYATRPEYVFGMNMGFDWKGFNFTMQWVGSKNVNRMYDIEYRIPYTNAGKRGLLTYFYDGCWTPENQLGATYPRPSEESESWNSEPSTLWLVDASYLRLKSLSFGYTITGKKFLKKLGLSSLGLNFSGYNLLTFSPLKYLDPESDPNRFGDYPLIKVYSFGLNLNF”: “not soluble”.

For the sequence “GKENDAGDIVEKFDPTEAQSVEVQDERPETTIGRGKPTDEVVLLSEAHRPEEKMAAYEDEHGTYIMNSKDLRAVQHVERLTKMGVHSLKIEGRTKSFYYCARTAQVYRKAIDDAVAGKPFDESLMGTLESLAHRGYTEGFLRRHTHDTYQNYDYGYSVSDAQQFVGEFTGKRRGDMAEVEVKNKFVVGDSLELMTPKGNVVFTLEAMENRKSESIEDAKGNGHFVFIPVPEDMDLEYGLLMRNLNAGQDTRNPTGK”, the “soluble on expression in E. coli” value is “not soluble”. With “GKHTVPYTISVDGITALHRTYFVFPENKKVLYQEIDSKVKNELASQRGVTTEKINNAQTATYTLTLNDGNKKVVNLKKNDDAKNSIDPSTIKQIQIVVK”, the “soluble on expression in E. coli” value is reported as “soluble”. As for “GKITFYEDRGFQGHCYESSSDCPNLQPYFSRCNSIRVDSGCWMLYERPNYQGHQYFLRRGDYPDYQQWMGFNDSIRSCRLIPQHTGTFRMRIYERDDFRGQMSEITDDCPSLQDRFHLTEVHSLNVLEGSWVLYEMPSYRGRQYLLRPGEYRRYLDWGAMNAKVGSLRRVMDFY”, the entry is “soluble”; as for “GKRSERQQADMEMMKDRFAKLLLGEDMSGGGKGVSSALALSNAITNLAASIFGEQTKLQPMPQDRQARWKKEIDWLLSVTDHIVEFVPSQQTSKDGVCTEIMVTRQRGDLLMNIPALRKLDAMLIDTLDNFRGHNEFWYVSRDSEEGQQARNDRTNDKWWLPPVKVPPGGLSEPSRRMLYFQKDSVTQVQKAAMAINAQVLSEMEIPESYIDSLPKNGRASLGDSIYKSITEEWFDPEQFLAMLDMSTEHKVLDLKNRIEASVVIWKRKLHTKDTKSSWGSAVSLEKRELFEERAETILVLLKQKFPGLPQSSLDISKIQFNKDVGQAVLESYSRILESLAYTVMSRIEDVLYTDTLALKQTLLA”, “soluble”. “GLAIEGPSEAKMSCKDNKDGSCTVEYIPFTPGDYDVNITFGGRPIPGSPFRVPVKDVVDPGKVKCSGPGLGAGVRARVPQTFTVDCSQAGRAPLQVAVLGPTGVAEPVEVRDNGDGTHTVHYTPATDGPYTVAVKYADQEVPRSPFKIKVLPAHDASKVRASGPGLNASGIPASLPVEFTIDARDAGEGLLTVQILDPEGKPKKANIRDNGDGTYTVSYLPDMSGRYTITIKYGGDEIPYSPFRIHALPTGDASKCLVTVSIGGHGLGACLGPRIQIGQETVITVDAKAAGEGKVTCTVSTPDGAELDVDVVENHDGTFDIYYTAPEPGKYVITIRFGGEHIPNSPFHVLACDPLPHEEEPSEVPQLRQPYAPPRPGARPTHWATEEPVVPVEPMESMLRPFNLVIPFAVQKGELTGEVRMPSGKTARPNITDNKDGTITVRYAPTEKGLHQMGIKYDGNHIPGSPLQFYVDAINSRHVSAYGPGLSHGMVNKPATFTIVTKDAGEGGLSLAVEGPSKAEITCKDNKDGTCTVSYLPTAPGDYSIIVRFDDKHIPGSPFTAKITGDDSMRTSQLNVGTSTDVSLKITESDLSQLTASIRAPSGNEEPCLLKRLPNRHIGISFTPKEVGEHVVSVRKSGKHVTNSPFKILVGPSEIGDASKVRVWGKGLSEGHTFQVAEFIVDTRNAGYGGLGLSIEGPSKVDINCEDMEDGTCKVTYCPTEPGTYIINIKFADKHVPGSPFTVKVTGEGRMKESITRRRQAPSIATIGSTCDLNLKIPGNWFQMVSAQERLTRTFTRSSHTYTRTERTEISKTRGGETKREVRVEESTQVGGDPFPAVFGDFLGRERLGSFGSITRQQEGEASSQDMTAQVTSPSGKVEAAEIVEGEDSAYSVRFVPQEMGPHTVAVKYRGQHVPGSPFQFTVGPLGEGGAHKVRAGGTGLERGVAGVPAEFSIWTREAGAGGLSIAVEGPSKAEIAFEDRKDGSCGVSYVVQEPGDYEVSIKFNDEHIPDSPFVVPVASLSDDARRLTVTSLQETGLKVNQPASFAVQLNGARGVIDARVHTPSGAVEECYVSELDSDKHTIRFIPHENGVHSIDVKFNGAHIPGSPFKIRVGEQSQAGDPGLVSAYGPGLEGGTTGVSSEFIVNTLNAGSGALSVTIDGPSKVQLDCRECPEGHVVTYTPMAPGNYLIAIKYGGPQHIVGSPFKAKVTGPRLSGGHSLHETSTVLVETVTKSSSSRGSSYSSIPKFSSDASKVVTRGPGLSQAFVGQKNSFTVDCSKAGTNMMMVGVHGPKTPCEEVYVKHMGNRVYNVTYTVKEKGDYILIVKWGDESVPGSPFKVKVP”: the “soluble on expression in E. coli” value is listed as “soluble”.

Regarding “GLNHMTARYLREEHHMFRAAFRKFLEKEAYPHYNDWEKRGIIPRSFWAKMGENGFLCPWVDEKYGGLNADFAYSVVINEELEKVGSSLVGIGLHNDIVTPYIASYGTEEQKQKWLPKCVTGELITAIAMTEPGAGSDLANISTTAVKDGDYYIVNGQKTFITNGIHADLIVVACKTDPQAKPPHRGISLLVVERDTPGFTRGRKLEKVGLHAQDTAELFFQDAKVPAYNLLGEEGKGFYYLMEKLQQERLVVAIAAQTAAEVMFSLTKQYVKQRTAFGKRVSEFQTVQFRLAEMATEIALGRTFVDRVIEEHMAGKQIVTEVSMAKWWITEMAKRVAAEAMQLHGGYGYMEEYEIARRYRDIPVSAIYAGTNEMMKTIIARQLDL”, the “soluble on expression in E. coli” value is reported as “soluble”. As for “GLQTYEYGLKPQDGFEVITHFEFTSQHLDILNRLFTPLIGVESIGLYHFMSQFIDESQQLGLTHYIFMNELKINLLDFREQMDNLEAIGLIKTFVRHEEKYSHFVYELIQPPTAYQFFNDPMLSVFLFSEVDKKRYQALKSYFEKDEKDLSKYQQTTRKFTEVFNVPKKVNVSDQINLKQIKHYDGIDLSNETFDFEMLRQMLNHHFISNEIIDKEAKNLIIQLATLYGITEDGMKNVILSSITSAQQLSFEEMRKKARTYYLIEHDNQLPKLEHQTNKINDEKKDRQAEDTTNDWLQLLDETSPIDMLASWSDSEPTQSQKSMIEELINREKMNFGVINILLQFVMLKEDMKLPKSYIFEIASNWKKIGISNAKQAYEYALQVNQPKNYETHSNDKRQNNRGRQNQFLSKEKTPKWLQNRDDQEENKEINDDTLEEDRQAFLEKLNQKWKEEDN”, the entry is “not soluble”.
